IntAct's records for PubMed 19706414

Target: casp8_human CASP8 (UniProt Q14790)
Sequence (Q14790 whole entry): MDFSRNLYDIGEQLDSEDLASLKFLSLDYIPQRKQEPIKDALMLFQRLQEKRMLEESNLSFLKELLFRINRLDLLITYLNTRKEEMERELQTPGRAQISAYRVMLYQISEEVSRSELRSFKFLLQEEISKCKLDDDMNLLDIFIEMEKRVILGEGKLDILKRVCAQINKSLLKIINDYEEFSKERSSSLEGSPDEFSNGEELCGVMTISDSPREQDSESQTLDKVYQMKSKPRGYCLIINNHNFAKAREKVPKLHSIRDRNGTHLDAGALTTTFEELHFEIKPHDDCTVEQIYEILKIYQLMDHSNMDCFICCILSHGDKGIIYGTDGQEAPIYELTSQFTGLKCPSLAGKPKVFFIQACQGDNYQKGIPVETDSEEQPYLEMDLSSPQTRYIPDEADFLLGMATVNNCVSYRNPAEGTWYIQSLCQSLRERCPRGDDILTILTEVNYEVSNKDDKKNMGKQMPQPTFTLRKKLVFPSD

Osteopontin (Homo sapiens), P10451-1 D135A;D157A, sequence (P10451 whole entry D135A/D157A): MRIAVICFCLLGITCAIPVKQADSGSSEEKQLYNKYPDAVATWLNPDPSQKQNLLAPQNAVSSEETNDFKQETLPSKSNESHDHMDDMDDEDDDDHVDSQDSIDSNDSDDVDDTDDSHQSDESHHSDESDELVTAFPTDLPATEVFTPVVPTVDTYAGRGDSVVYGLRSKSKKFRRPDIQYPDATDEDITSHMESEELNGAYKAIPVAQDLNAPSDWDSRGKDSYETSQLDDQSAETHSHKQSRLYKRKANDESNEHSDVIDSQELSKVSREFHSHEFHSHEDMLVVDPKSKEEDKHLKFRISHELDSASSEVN

effect of a mutation on the interaction: disrupting interaction
Substance: Osteopontin (Homo sapiens), P10451-1 D135A;D157A
